Test results taken from article PMC8278974.
Blank lines part the entries; values can stand above or below the substance they belong to.

Columns and labels:
Assay in all cases: gel electrophoresis; eluent of Ni-charged magnetic beads (0.5 M NaCl, 20 mM HEPES, 500 mM imidazole, 0.5% Genapol X-80, pH 8.0) after heating the lysate at 90 °C for 10 min; 4–20% Mini-PROTEAN TGX Gel, 200 V for 27 min; self-assembly, octamer band
[1] = molecular target: M2 MspA (Mycobacterium smegmatis porin A mutant M2) (Mycobacterium smegmatis) (UniProt A0QR29)
[2] = molecular target: MspA-C (M2 MspA with cysteine at site 91) (Mycobacterium smegmatis)
[3] = molecular target: MspA-D (M2 MspA with aspartic acid at site 91) (Mycobacterium smegmatis)
[4] = molecular target: MspA-H (M2 MspA with histidine at site 91) (Mycobacterium smegmatis)
[5] = molecular target: MspA-M (M2 MspA with methionine at site 91) (Mycobacterium smegmatis)

- stoichiometry N [1]: 8
Substance: M2 MspA (Mycobacterium smegmatis porin A mutant M2) (from UniProt A0QR29 28-211) (natural protein)

- stoichiometry N [2]: 8
Substance: MspA-C (M2 MspA with cysteine at site 91) (natural protein)

- stoichiometry N [3]: 8
Substance: MspA-D (M2 MspA with aspartic acid at site 91) (natural protein)

- stoichiometry N [4]: 8
Substance: MspA-H (M2 MspA with histidine at site 91) (natural protein)

- stoichiometry N [5]: 8
Substance: MspA-M (M2 MspA with methionine at site 91) (natural protein)
